In patent publication US20260001928A1 (CORTERIA PHARMACEUTICALS, priority 2022, published 2026):
*1 amine or outer side, *2 acyl side, *3 side chain or, on linkers, in order; H or OH if unused. Where no end group is shown, it is not given here. Side-chain parts run from the residue outwards. [ ]: non-standard residue; d: D form. The star is where a group is joined. C18 diacid = O=C(O)CCCCCCCCCCCCCCCCC(=O)*; C16 diacid = O=C(O)CCCCCCCCCCCCCCC(=O)*; γGlu = O=C(O)[C@H](CCC(=O)[*:2])N[*:1]; NMeI = CC[C@H](C)[C@H](NC)C(=O)O; αMeL = CC(C)C[C@](C)(N)C(=O)O; Pentanoyl = CCCCC(=O)*; AEEA = NCCOCCOCC(=O)O; Aib = CC(C)(N)C(=O)O

How the values were obtained:
CRF1R receptor = target: T1, CRF1R receptor (UniProt P34998 24-415, limits assumed); assay: cell-based or functional assay
T1 sequence (looked up): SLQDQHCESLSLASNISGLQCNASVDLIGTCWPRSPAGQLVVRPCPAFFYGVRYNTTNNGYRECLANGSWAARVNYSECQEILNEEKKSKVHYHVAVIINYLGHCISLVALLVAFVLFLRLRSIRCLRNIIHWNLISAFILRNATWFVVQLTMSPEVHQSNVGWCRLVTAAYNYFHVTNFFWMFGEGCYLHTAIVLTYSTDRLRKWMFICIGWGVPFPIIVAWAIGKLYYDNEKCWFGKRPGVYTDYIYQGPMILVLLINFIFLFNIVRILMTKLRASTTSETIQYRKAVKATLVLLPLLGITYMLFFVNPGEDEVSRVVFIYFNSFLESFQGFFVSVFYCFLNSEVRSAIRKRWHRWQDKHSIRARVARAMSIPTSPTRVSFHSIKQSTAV

[1] = target: human corticotropin-releasing factor 2a (CRF2a receptor) (human), Q13324; assay: cell-based or functional assay
human corticotropin-releasing factor 2a (CRF2a receptor) (human), Q13324, sequence (Q13324 20-411): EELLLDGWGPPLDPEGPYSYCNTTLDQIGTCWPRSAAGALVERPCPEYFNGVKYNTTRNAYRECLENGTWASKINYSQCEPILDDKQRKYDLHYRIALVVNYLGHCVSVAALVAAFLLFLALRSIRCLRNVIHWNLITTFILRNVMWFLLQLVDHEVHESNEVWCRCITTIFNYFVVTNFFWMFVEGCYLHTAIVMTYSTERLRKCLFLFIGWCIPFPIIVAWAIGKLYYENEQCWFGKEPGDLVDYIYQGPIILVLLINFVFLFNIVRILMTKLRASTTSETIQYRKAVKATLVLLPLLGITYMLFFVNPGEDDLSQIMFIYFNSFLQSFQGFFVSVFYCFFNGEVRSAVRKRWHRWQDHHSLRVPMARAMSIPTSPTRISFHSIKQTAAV

Row | Binder | Emax (% I) (CRF1R receptor) [%] | EC50 [nM] (cAMP) [1] | EC50 (CRF1R receptor) [nM]
1 | Ac-IVLSLD[dV]PIKLK([γGlu-C18 diacid])KILLEQEKQKKQREQAETN[Aib]QILAQV-NH2 (SMILES CC[C@H](C)[C@H](NC(C)=O)C(=O)N[C@H](C(=O)N[C@@H](CC(C)C)C(=O)N[C@@H](CO)C(=O)N[C@@H](CC(C)C)C(=O)N[C@@H](CC(=O)O)C(=O)N[C@@H](C(=O)N1CCC[C@H]1C(=O)N[C@H](C(=O)N[C@@H](CCCCN)C(=O)N[C@@H](CC(C)C)C(=O)N[C@@H](CCCCNC(=O)CC[C@H](NC(=O)CCCCCCCCCCCCCCCCC(=O)O)C(=O)O)C(=O)N[C@@H](CCCCN)C(=O)N[C@H](C(=O)N[C@@H](CC(C)C)C(=O)N[C@@H](CC(C)C)C(=O)N[C@@H](CCC(=O)O)C(=O)N[C@@H](CCC(N)=O)C(=O)N[C@@H](CCC(=O)O)C(=O)N[C@@H](CCCCN)C(=O)N[C@@H](CCC(N)=O)C(=O)N[C@@H](CCCCN)C(=O)N[C@@H](CCCCN)C(=O)N[C@@H](CCC(N)=O)C(=O)N[C@@H](CCCNC(=N)N)C(=O)N[C@@H](CCC(=O)O)C(=O)N[C@@H](CCC(N)=O)C(=O)N[C@@H](C)C(=O)N[C@@H](CCC(=O)O)C(=O)N[C@H](C(=O)N[C@@H](CC(N)=O)C(=O)NC(C)(C)C(=O)N[C@@H](CCC(N)=O)C(=O)N[C@H](C(=O)N[C@@H](CC(C)C)C(=O)N[C@@H](C)C(=O)N[C@@H](CCC(N)=O)C(=O)N[C@H](C(N)=O)C(C)C)[C@@H](C)CC)[C@@H](C)O)[C@@H](C)CC)[C@@H](C)CC)C(C)C)C(C)C) [SEQ ID NO 125] | 18 | 0.15 | 
2 | [NMeI]VLSLD[dV]PIK[αMeL]K([AEEA-AEEA-γGlu-C18 diacid])KILLEQEKQKKQREQAETN[Aib]QILAQV-NH2 (N-terminus assumed; SMILES CC[C@H](C)[C@H](NC)C(=O)N[C@H](C(=O)N[C@@H](CC(C)C)C(=O)N[C@@H](CO)C(=O)N[C@@H](CC(C)C)C(=O)N[C@@H](CC(=O)O)C(=O)N[C@@H](C(=O)N1CCC[C@H]1C(=O)N[C@H](C(=O)N[C@@H](CCCCN)C(=O)N[C@@](C)(CC(C)C)C(=O)N[C@@H](CCCCNC(=O)COCCOCCNC(=O)COCCOCCNC(=O)CC[C@H](NC(=O)CCCCCCCCCCCCCCCCC(=O)O)C(=O)O)C(=O)N[C@@H](CCCCN)C(=O)N[C@H](C(=O)N[C@@H](CC(C)C)C(=O)N[C@@H](CC(C)C)C(=O)N[C@@H](CCC(=O)O)C(=O)N[C@@H](CCC(N)=O)C(=O)N[C@@H](CCC(=O)O)C(=O)N[C@@H](CCCCN)C(=O)N[C@@H](CCC(N)=O)C(=O)N[C@@H](CCCCN)C(=O)N[C@@H](CCCCN)C(=O)N[C@@H](CCC(N)=O)C(=O)N[C@@H](CCCNC(=N)N)C(=O)N[C@@H](CCC(=O)O)C(=O)N[C@@H](CCC(N)=O)C(=O)N[C@@H](C)C(=O)N[C@@H](CCC(=O)O)C(=O)N[C@H](C(=O)N[C@@H](CC(N)=O)C(=O)NC(C)(C)C(=O)N[C@@H](CCC(N)=O)C(=O)N[C@H](C(=O)N[C@@H](CC(C)C)C(=O)N[C@@H](C)C(=O)N[C@@H](CCC(N)=O)C(=O)N[C@H](C(N)=O)C(C)C)[C@@H](C)CC)[C@@H](C)O)[C@@H](C)CC)[C@@H](C)CC)C(C)C)C(C)C) [SEQ ID NO 119] | 5 | 1.62 | 
3 | Pentanoyl-VLSLD[dV]PIK[αMeL]K([AEEA-AEEA-γGlu-C18 diacid])KILLEQEKQKKQREQAETN[Aib]QILAQV-NH2 [SEQ ID NO 123] | 14 | 0.7 | 
4 | Pentanoyl-VLSLD[dV]PIK[αMeL]K([AEEA-AEEA-γGlu-C18 diacid])KILLEQEKQKKQREQAETNVQILAQV-NH2 [SEQ ID NO 124] | 14 | 0.38 | 
5 | Ac-IVLSLD[dV]PIKLK([γGlu-C16 diacid])QILLKQERQKKQREQAEKNKQILEQV-NH2 (SMILES CC[C@H](C)[C@H](NC(C)=O)C(=O)N[C@H](C(=O)N[C@@H](CC(C)C)C(=O)N[C@@H](CO)C(=O)N[C@@H](CC(C)C)C(=O)N[C@@H](CC(=O)O)C(=O)N[C@@H](C(=O)N1CCC[C@H]1C(=O)N[C@H](C(=O)N[C@@H](CCCCN)C(=O)N[C@@H](CC(C)C)C(=O)N[C@@H](CCCCNC(=O)CC[C@H](NC(=O)CCCCCCCCCCCCCCC(=O)O)C(=O)O)C(=O)N[C@@H](CCC(N)=O)C(=O)N[C@H](C(=O)N[C@@H](CC(C)C)C(=O)N[C@@H](CC(C)C)C(=O)N[C@@H](CCCCN)C(=O)N[C@@H](CCC(N)=O)C(=O)N[C@@H](CCC(=O)O)C(=O)N[C@@H](CCCNC(=N)N)C(=O)N[C@@H](CCC(N)=O)C(=O)N[C@@H](CCCCN)C(=O)N[C@@H](CCCCN)C(=O)N[C@@H](CCC(N)=O)C(=O)N[C@@H](CCCNC(=N)N)C(=O)N[C@@H](CCC(=O)O)C(=O)N[C@@H](CCC(N)=O)C(=O)N[C@@H](C)C(=O)N[C@@H](CCC(=O)O)C(=O)N[C@@H](CCCCN)C(=O)N[C@@H](CC(N)=O)C(=O)N[C@@H](CCCCN)C(=O)N[C@@H](CCC(N)=O)C(=O)N[C@H](C(=O)N[C@@H](CC(C)C)C(=O)N[C@@H](CCC(=O)O)C(=O)N[C@@H](CCC(N)=O)C(=O)N[C@H](C(N)=O)C(C)C)[C@@H](C)CC)[C@@H](C)CC)[C@@H](C)CC)C(C)C)C(C)C) [SEQ ID NO 2] | 63 | 0.07 | 95.4
6 | Ac-VLSLD[dV]PIKLK([γGlu-C16 diacid])KILLEQEKQKKQREQAETN[Aib]QILAQV-NH2 (SMILES CC[C@H](C)[C@H](NC(=O)[C@H](CCC(N)=O)NC(=O)C(C)(C)NC(=O)[C@H](CC(N)=O)NC(=O)[C@@H](NC(=O)[C@H](CCC(=O)O)NC(=O)[C@H](C)NC(=O)[C@H](CCC(N)=O)NC(=O)[C@H](CCC(=O)O)NC(=O)[C@H](CCCNC(=N)N)NC(=O)[C@H](CCC(N)=O)NC(=O)[C@H](CCCCN)NC(=O)[C@H](CCCCN)NC(=O)[C@H](CCC(N)=O)NC(=O)[C@H](CCCCN)NC(=O)[C@H](CCC(=O)O)NC(=O)[C@H](CCC(N)=O)NC(=O)[C@H](CCC(=O)O)NC(=O)[C@H](CC(C)C)NC(=O)[C@H](CC(C)C)NC(=O)[C@@H](NC(=O)[C@H](CCCCN)NC(=O)[C@H](CCCCNC(=O)CC[C@H](NC(=O)CCCCCCCCCCCCCCC(=O)O)C(=O)O)NC(=O)[C@H](CC(C)C)NC(=O)[C@H](CCCCN)NC(=O)[C@@H](NC(=O)[C@@H]1CCCN1C(=O)[C@H](NC(=O)[C@H](CC(=O)O)NC(=O)[C@H](CC(C)C)NC(=O)[C@H](CO)NC(=O)[C@H](CC(C)C)NC(=O)[C@@H](NC(C)=O)C(C)C)C(C)C)[C@@H](C)CC)[C@@H](C)CC)[C@@H](C)O)C(=O)N[C@@H](CC(C)C)C(=O)N[C@@H](C)C(=O)N[C@@H](CCC(N)=O)C(=O)N[C@H](C(N)=O)C(C)C) [SEQ ID NO 45] | 5 | 0.96 | 
